The supplement of paper PMC9112550, “Optimization of the antimicrobial peptide Bac7 by deep mutational scanning” (BMC Biology, 2022)

Test system: Escherichia coli TOP10
Test: shrunken log2 fold change of peptide-encoding DNA abundance (4.5 h post-induction vs induction); higher = less antimicrobial activity (less host growth inhibition)
Conditions: time post-induction: 4.5 h; library: site-saturation at positions 5, 18, 19, 20
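Note: peptides expressed intracellularly from a pBAD plasmid library in pooled LB shake-flask culture, induced with 0.3% L-arabinose, DNA abundance read by NGS, three biological replicates, DESeq2 with apeglm shrinkage.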

| Sequence | shrunken log2 fold change |
| --- | --- |
| RRIRVRPPRLPRPRPRPMNTPRP | -0.312 |
| RRIRLRPPRLPRPRPRPMWCPRP | 0.214 |
| RRIRDRPPRLPRPRPRPNGEPRP | 0.0768 |
| RRIRWRPPRLPRPRPRPACHPRP | 0.442 |
| RRIRKRPPRLPRPRPRPSAHPRP | 0.164 |
| RRIRKRPPRLPRPRPRPMNHPRP | 0.395 |
| RRIRCRPPRLPRPRPRPNEWPRP | 0.0357 |
| RRIRYRPPRLPRPRPRPSQYPRP | -0.209 |
| RRIRMRPPRLPRPRPRPKEKPRP | 0.0504 |
| RRIRWRPPRLPRPRPRPPGGPRP | 0.669 |
| RRIRIRPPRLPRPRPRPYCFPRP | -0.834 |
| RRIRLRPPRLPRPRPRPCYVPRP | -1.08 |
| RRIRIRPPRLPRPRPRPEIHPRP | -0.0126 |
| RRIRDRPPRLPRPRPRPELKPRP | -0.00616 |
| RRIRNRPPRLPRPRPRPTPGPRP | 0.312 |
| RRIRSRPPRLPRPRPRPKSRPRP | -0.0201 |
| RRIRIRPPRLPRPRPRPGLFPRP | -0.0275 |
| RRIRFRPPRLPRPRPRPQTTPRP | 0.00489 |
| RRIRQRPPRLPRPRPRPFVSPRP | -0.216 |
| RRIRARPPRLPRPRPRPWVYPRP | -0.0996 |
| RRIRHRPPRLPRPRPRPDADPRP | 0.0435 |
| RRIRKRPPRLPRPRPRPMPHPRP | 0.274 |
| RRIRRRPPRLPRPRPRPVITPRP | -0.554 |
| RRIRTRPPRLPRPRPRPPCPPRP | 0.15 |
| RRIRNRPPRLPRPRPRPNHVPRP | -0.117 |

| Sequence | shrunken log2 fold change |
| --- | --- |
| RRIRARPPRLPRPRPRPYYTPRP | -0.762 |
| RRIRKRPPRLPRPRPRPGTFPRP | 0.253 |
| RRIRDRPPRLPRPRPRPFPCPRP | 0.0367 |
| RRIRWRPPRLPRPRPRPNFQPRP | 0.0517 |
| RRIRERPPRLPRPRPRPKPTPRP | 0.148 |
| RRIRLRPPRLPRPRPRPMGPPRP | 0.015 |
| RRIRGRPPRLPRPRPRPKDYPRP | -0.00224 |
| RRIRDRPPRLPRPRPRPCNPPRP | -0.13 |
| RRIRCRPPRLPRPRPRPSDLPRP | -0.0943 |
| RRIRGRPPRLPRPRPRPDVYPRP | -0.0497 |
| RRIRWRPPRLPRPRPRPWFTPRP | -0.0224 |
| RRIRWRPPRLPRPRPRPPYMPRP | -0.16 |
| RRIRIRPPRLPRPRPRPTGVPRP | 0.039 |
| RRIRFRPPRLPRPRPRPRQDPRP | 0.253 |
| RRIRFRPPRLPRPRPRPKDKPRP | -0.223 |
| RRIRGRPPRLPRPRPRPRYPPRP | 0.232 |
| RRIRKRPPRLPRPRPRPGWVPRP | 0.573 |
| RRIRARPPRLPRPRPRPYILPRP | -0.983 |
| RRIRCRPPRLPRPRPRPRNVPRP | -0.156 |
| RRIRYRPPRLPRPRPRPRAIPRP | -0.36 |
| RRIRCRPPRLPRPRPRPRKYPRP | -0.458 |
| RRIRSRPPRLPRPRPRPGNSPRP | 0.0554 |
| RRIRYRPPRLPRPRPRPRLLPRP | -0.0826 |
| RRIRNRPPRLPRPRPRPKGRPRP | 0.0238 |
| RRIRLRPPRLPRPRPRPANLPRP | -0.00914 |

| Sequence | shrunken log2 fold change |
| --- | --- |
| RRIRDRPPRLPRPRPRPAAIPRP | 0.272 |
| RRIRRRPPRLPRPRPRPKAQPRP | -0.00801 |
| RRIRKRPPRLPRPRPRPNYVPRP | -0.087 |
| RRIRIRPPRLPRPRPRPREQPRP | 0.198 |
| RRIRGRPPRLPRPRPRPKQPPRP | 1.08 |
| RRIRYRPPRLPRPRPRPCMIPRP | -0.731 |
| RRIRVRPPRLPRPRPRPSDKPRP | -0.153 |
| RRIRWRPPRLPRPRPRPNVNPRP | -0.171 |
| RRIRRRPPRLPRPRPRPLPGPRP | 0.59 |
| RRIRMRPPRLPRPRPRPHNDPRP | 0.00915 |
| RRIRFRPPRLPRPRPRPLNCPRP | -0.125 |
| RRIRARPPRLPRPRPRPLFYPRP | -0.312 |
| RRIRLRPPRLPRPRPRPFMSPRP | -1.39 |
| RRIRFRPPRLPRPRPRPGWVPRP | 0.176 |
| RRIRCRPPRLPRPRPRPCTAPRP | -0.361 |
| RRIRGRPPRLPRPRPRPCLTPRP | 0.496 |
| RRIRERPPRLPRPRPRPGNQPRP | -0.00399 |
| RRIRKRPPRLPRPRPRPWVCPRP | 0.324 |
| RRIRRRPPRLPRPRPRPQHQPRP | 0.246 |
| RRIRFRPPRLPRPRPRPVTIPRP | -0.118 |
| RRIRMRPPRLPRPRPRPSSVPRP | 3.19 |
| RRIRARPPRLPRPRPRPHWYPRP | 0.157 |
| RRIRWRPPRLPRPRPRPYDFPRP | -0.181 |
| RRIRARPPRLPRPRPRPLVFPRP | 0.397 |
| RRIRNRPPRLPRPRPRPYRKPRP | -0.0658 |

| Sequence | shrunken log2 fold change |
| --- | --- |
| RRIRQRPPRLPRPRPRPQMSPRP | -0.0844 |
| RRIRPRPPRLPRPRPRPIHHPRP | -0.454 |
| RRIRRRPPRLPRPRPRPAIVPRP | 0.275 |
| RRIRWRPPRLPRPRPRPRGMPRP | 0.313 |
| RRIRKRPPRLPRPRPRPKLQPRP | 0.423 |
| RRIRFRPPRLPRPRPRPWTQPRP | -0.959 |
| RRIRQRPPRLPRPRPRPKVDPRP | 0.129 |
| RRIRSRPPRLPRPRPRPAWIPRP | -0.0375 |
| RRIRVRPPRLPRPRPRPAGVPRP | 0.283 |
| RRIRYRPPRLPRPRPRPANKPRP | -0.278 |
| RRIRVRPPRLPRPRPRPCLPPRP | -0.219 |
| RRIRWRPPRLPRPRPRPAQFPRP | 0.248 |
| RRIRNRPPRLPRPRPRPTKMPRP | 0.00053 |
| RRIRNRPPRLPRPRPRPSTPPRP | -0.103 |
| RRIRNRPPRLPRPRPRPCDVPRP | 0.0235 |
| RRIRWRPPRLPRPRPRPTIEPRP | 0.145 |
| RRIRSRPPRLPRPRPRPAWYPRP | -0.3 |
| RRIRGRPPRLPRPRPRPALFPRP | 1.23 |
| RRIRYRPPRLPRPRPRPQVTPRP | -0.00804 |
| RRIRVRPPRLPRPRPRPTGLPRP | 0.000711 |
| RRIRPRPPRLPRPRPRPHNSPRP | -0.454 |
| RRIRYRPPRLPRPRPRPSKWPRP | -0.155 |
| RRIRMRPPRLPRPRPRPGWTPRP | 0.185 |
| RRIRWRPPRLPRPRPRPLHSPRP | 0.215 |
| RRIRHRPPRLPRPRPRPHTRPRP | -0.174 |

| Sequence | shrunken log2 fold change |
| --- | --- |
| RRIRFRPPRLPRPRPRPYFVPRP | -0.59 |
| RRIRFRPPRLPRPRPRPEGLPRP | -0.0574 |
| RRIRGRPPRLPRPRPRPTCQPRP | 0.71 |
| RRIRSRPPRLPRPRPRPTSQPRP | 0.0259 |
| RRIRERPPRLPRPRPRPPKLPRP | -0.0377 |
| RRIRHRPPRLPRPRPRPVARPRP | 0.227 |
| RRIRQRPPRLPRPRPRPEWRPRP | -0.00139 |
| RRIRPRPPRLPRPRPRPSDSPRP | -0.361 |
| RRIRYRPPRLPRPRPRPYNQPRP | -0.922 |
| RRIRQRPPRLPRPRPRPLFKPRP | -0.387 |
| RRIRNRPPRLPRPRPRPEWYPRP | -0.451 |
| RRIRHRPPRLPRPRPRPLEAPRP | -0.00262 |
| RRIRKRPPRLPRPRPRPDANPRP | -0.0872 |
| RRIRARPPRLPRPRPRPCKMPRP | 0.145 |
| RRIRCRPPRLPRPRPRPAKSPRP | 0.448 |
| RRIRIRPPRLPRPRPRPVQIPRP | 0.072 |
| RRIRVRPPRLPRPRPRPFCVPRP | -0.0102 |
| RRIRFRPPRLPRPRPRPPHQPRP | 0.301 |
| RRIRMRPPRLPRPRPRPPAKPRP | 1.06 |
| RRIRIRPPRLPRPRPRPHGAPRP | -0.0865 |
| RRIRMRPPRLPRPRPRPHIQPRP | -0.421 |
| RRIRIRPPRLPRPRPRPSLWPRP | 0.211 |
| RRIRHRPPRLPRPRPRPTQNPRP | 0.666 |
| RRIRDRPPRLPRPRPRPQLVPRP | 0.0777 |
| RRIRVRPPRLPRPRPRPDQAPRP | -0.038 |
